{"source": "the nanobody polyreactivity screen of Harvey et al. (2022)"}
{"assay": "yeast display, Sf9 membrane polyspecificity reagent, FACS + sequencing; frameworks hold sequencing errors", "summary_of_the_method": "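Nanobodies came from a synthetic yeast display library in Saccharomyces cerevisiae BJ5465, induced with galactose for 36–48 hours and stained for 1 hour at 4 °C with 10% biotinylated, detergent-solubilized Sf9 membrane reagent. Cells were enriched on streptavidin microbeads and then FACS-sorted, with low and high (top ~1%) gates set on anti-HA fluorescence for expression and streptavidin fluorescence for reagent binding. Each polyreactivity label reflects the gate a clone came from. Genes were amplified by colony PCR, sequenced by MiSeq 2 × 250 and filtered by CDR length.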"}
{"sequence": "QVQLVESGGGLVQAGGSLRLSCAASGRTYFDYTMGWYRQAPGKERELVAAINRSGVSTYYADSVKGRFTISRDNAKNTVYLQMNSLKPEDTAVYYCNADRGPPKLEYDPVIMDYWGQGTQVTVSS", "polyreactivity (PSR sort gate)": "low polyreactivity"}
{"sequence": "QVQLVESGGGLVQAGGSLRLSCAASGRTYGYAMGWYRQAPGKERELVARNTWRGGSTSYADSVKGRFTISRDNAKNTVYLQMNSLKPEDTAVYYCAATYGTGRRSKYGYWGQGTQVTVSS", "polyreactivity (PSR sort gate)": "high polyreactivity"}
{"sequence": "QVQLVESGGGLVQAGGSLRLSCAASGRTYHAYAMGWYRQAPGKGRELVAAITRTGTTHYADSVKGRFTISRDNAKNTVYLQMTSLKPEDTAVYYCAAQHVRVDAQFVLQGYDYWGQGTQVTVSS", "polyreactivity (PSR sort gate)": "low polyreactivity"}
{"sequence": "QVQLVESGGGLVQAGGSLRLSCAASGRTYIVNVMGWYRQAPGKERELVAAINWSTGRTYYADSVKGRFTISRDNAKNTVYLQMNSLKPEDTAVYYCAAEEFDSFWWGYYEMDYWGQGTQVTVSS", "polyreactivity (PSR sort gate)": "high polyreactivity"}
{"sequence": "QVQLVESGGGLVQAGGSLRLSCAASGRTYPYAMGLYRQAPGKEREFVAAITSSGGSTYYADSVKGRFTISRDNAKNTVYLQMNSLKPEDTAVYYCAAEYYFLEYDYWGQGTQVTVSS", "polyreactivity (PSR sort gate)": "low polyreactivity"}
{"sequence": "QVQLVESGGGLVQAGGSLRLSCAASGRTYQDNAMGWYRQEPGTERELVAAISFNSDSTYYADSVKGRFTISRDNAKNTVYLQMNSLKPEDTAVYYCAAQVVPTLYLRPLDYWGQGTQVTVSS", "polyreactivity (PSR sort gate)": "low polyreactivity"}
{"sequence": "QVQLVESGGGLVQAGGSLRLSCAASGRTYRAYTMGWYRQAPGKERELVAAISTPGGSTYYADSVKGRFTISRDNAKKTVYLQMIILKPEDNAVYYCAAGTFYYWLSYDYWGQGTKVTVSS", "polyreactivity (PSR sort gate)": "low polyreactivity"}
{"sequence": "QVQLVESGGGLVQAGGSLRLSCAASGRTYRVYAMGWYRQAPGKERELVASITRGGGTYADSVKGRFTISRDNAKNTVYLQMNSLKAEDTAVYYCNARWHRSTGGRQRYDYWGQGTQVTVSS", "polyreactivity (PSR sort gate)": "high polyreactivity"}
{"sequence": "QVQLVESGGGLVQAGGSLRLSCAASGRTYSIYAMGLYRQEPGNEREMVAAISNGGRTKYADSVKGRFTISRDNAKNTVYLQMNSLKPEDTAVYYCAASSYTNKRYPSPYDYWGQGTQVTVSS", "polyreactivity (PSR sort gate)": "high polyreactivity"}
{"sequence": "QVQLVESGGGLVQAGGSLRLSCAASGRTYVRNAMGWYRQAPGKERELVAGITRSGGSTYYADSVKGRFTISRDNAKNTVYLQMNSLKPEDTAVYYCAKRYDVYVGTVRPYDYWGQGTQVTVSS", "polyreactivity (PSR sort gate)": "low polyreactivity"}
{"sequence": "QVQLVESGGGLVQAGGSLRLSCAASGSARYAMGWYRQAPGKERELVAAISRRGGSTFYADSVKGRFTISRDNAKNTVYLQMNSLKPEDTAVYYCAADGRISYDYWGQGTQVTVSS", "polyreactivity (PSR sort gate)": "low polyreactivity"}
{"sequence": "QVQLVESGGGLVQAGGSLRLSCAASGSFFRNYAMGWYRQAPGKERELVAAISRRGTSTFYADSVKGRFTISRDNAMNTVYLQMNSLKPEDTAVYYCAARGSAGGDYGYWGQGTQVTVSS", "polyreactivity (PSR sort gate)": "high polyreactivity"}
{"sequence": "QVQLVESGGGLVQAGGSLRLSCAASGSIAGNAMGWYRQAPGKERELVATITRRGGRTYYADSVKGRFTISRDNAKNTVYLQMNSLKPEDTAVYYCNKVSYARGYDYWGQGTQVTVSS", "polyreactivity (PSR sort gate)": "high polyreactivity"}
{"sequence": "QVQLVESGGGLVQAGGSLRLSCAASGSICGKNGMGWYRQAPGKERELVAAITSGGGNTYYADSVKGRFTISRDNAKNTVYLQMNSLKPEDTAVDYCAKGYRAYYWGFNYWGQGTQVTVSS", "polyreactivity (PSR sort gate)": "high polyreactivity"}
{"sequence": "QVQLVESGGGLVQAGGSLRLSCAASGSICRQYTMGWYRQAPGKERELVAGINQSGDSTSADSVKGRFTISRDNAKNTVYLQMNSLKPEDTAVYYCNADPRVWYRNIYPGRNYDYWGQGTQVTVSS", "polyreactivity (PSR sort gate)": "low polyreactivity"}
{"sequence": "QVQLVESGGGLVQAGGSLRLSCAASGSICRYYDMGWYRQAPGKERELVAAISRSGGSTYYADSVKGRFTISRDNAKNTVYLQMNSLKPEDTAVYYCNVDQFRYREDDYWGQGTQVNVSS", "polyreactivity (PSR sort gate)": "high polyreactivity"}
{"sequence": "QVQLVESGGGLVQAGGSLRLSCAASGSIFAAYTMGWYRQAPGKERVFVAAITYTGGSTYYADSVKGRFTISRDNAKNTVYLQMNSLKPEDTAVYYCAARGRLCQGYYYWGQGTQVTVSS", "polyreactivity (PSR sort gate)": "low polyreactivity"}
{"sequence": "QVQLVESGGGLVQAGGSLRLSCAASGSIFAAYTMGWYRQAPGNERELVAAISVSTVSTYYADSVKGRFTISRDNAKNTVYLQMNSLKPEDTAVYYCNADATDSYPEKDEHESWGQGTQVTVSS", "polyreactivity (PSR sort gate)": "low polyreactivity"}
{"sequence": "QVQLVESGGGLVQAGGSLRLSCAASGSIFADNTMGWSRQAPGKERELVAAITSSGRTYYADSVTGRFTISRDNAKNTVYLQMKSLKPEDTAVYYCAAVIYFHDYSPYYYWGQGTQVTVSS", "polyreactivity (PSR sort gate)": "high polyreactivity"}
{"sequence": "QVQLVESGGGLVQAGGSLRLSCAASGSIFADYAMGWYRQAPGKERELVAAISYNGDSTYYADSVKGRFTISRDNAKTTVYLQMNSLKPEDTAVYNCAADGAYGGYDYWGQGTQVTVSS", "polyreactivity (PSR sort gate)": "low polyreactivity"}
{"sequence": "QVQLVESGGGLVQAGGSLRLSCAASGSIFADYTMGWYRQAPGKEREVVAAITSGGSTYYADSVKGRFTISRDNAKNTVYLQMNSLKPEDTAVYYCAAYYGGRGYWGQGTQVTVSS", "polyreactivity (PSR sort gate)": "low polyreactivity"}
{"sequence": "QVQLVESGGGLVQAGGSLRLSCAASGSIFAGNAMGWYRQAPGKERELVAAISWRGGSTYYADSVKGRFTISRDNAKNTVYLQMNSLKPEDTAVYYCAATWYDRRTFFYKYDYWGQGTQVTVSS", "polyreactivity (PSR sort gate)": "low polyreactivity"}
{"sequence": "QVQLVESGGGLVQAGGSLRLSCAASGSIFAGYAMGWYRQAPGKERELVAAISKSAGSTYYADSVKGRFTISRDNAKNTVYLQMNSLKPEDTAVYYCAARTFNTYPRYYYWGQGTQVTVSS", "polyreactivity (PSR sort gate)": "high polyreactivity"}
{"sequence": "QVQLVESGGGLVQAGGSLRLSCAASGSIFAGYAMGWYRQAPGKERELVAVISSTGSTYYADSVKGRFTISRDNAKNTVYLQMNSLKPEDTAVYYCAAGDVGYSYYRIYSRMDYWGQGTQVTVSS", "polyreactivity (PSR sort gate)": "low polyreactivity"}
{"sequence": "QVQLVESGGGLVQAGGSLRLSCAASGSIFAGYTMGWSRQAPGKERELVAVISTGGRTKYADSVKGRFTISRDNAKNTVYLQMNSLKPEDTAVYYCAADSRGWSLDGDYWGQGTQVTVSS", "polyreactivity (PSR sort gate)": "low polyreactivity"}
{"sequence": "QVQLVESGGGLVQAGGSLRLSCAASGSIFAGYTMGWYRQAPGKERELVATITRSGTSTFYADSVKGRFTISRDNAKNTVYLQMNSLKPEDTAVYYCAADVTARYDYWGQGTQVTVSS", "polyreactivity (PSR sort gate)": "high polyreactivity"}
{"sequence": "QVQLVESGGGLVQAGGSLRLSCAASGSIFAIYVMGWYRQAPGKERELVAAISYRSGSTYYADSVKGRFTISRDNAKNTVYLQMNSLKPEDTAVYYCAATSRYYTFGYWGQGTQVTVSS", "polyreactivity (PSR sort gate)": "low polyreactivity"}
{"sequence": "QVQLVESGGGLVQAGGSLRLSCAASGSIFAKYAMGWYRQAPGKERELVAAITSGGSTNYADSVKGRFTISRDNAKITVYLQINSLKPEDTAVYYCNATGLYYDFYKLDYWGQGTQVTVSS", "polyreactivity (PSR sort gate)": "low polyreactivity"}
{"sequence": "QVQLVESGGGLVQAGGSLRLSCAASGSIFAKYAMGWYRQAPGKERELVAAITSGGSTNYADSVKGRFTISRDNAKNTVYLQMTSLKPEDTAVYYCAARNHYRGYYWGQGTHVTVSS", "polyreactivity (PSR sort gate)": "low polyreactivity"}
{"sequence": "QVQLVESGGGLVQAGGSLRLSCAASGSIFAKYAMGWYRQAPGKERELVAAITYSSSSTYYADSVKGRFTISRDNAKNTVYLQMNSLKPEDTAVYYCAARKKARGHGGNDYWGQGTLVTVSS", "polyreactivity (PSR sort gate)": "high polyreactivity"}
{"sequence": "QVQLVESGGGLVQAGGSLRLSCAASGSIFAKYAMGWYRQAPGKERELVASITYSGGGTYYADSVKGRFTISLDNAKNTVYLQMNSLKPEDTAFYYCNAVKRVYIWASFRYVFWYDSWGQATQVTVSS", "polyreactivity (PSR sort gate)": "high polyreactivity"}
{"sequence": "QVQLVESGGGLVQAGGSLRLSCAASGSIFAKYAMGWYRQAPGKERELVAVITSRGGTYYADSVKGRFTISRDNAKKTVYLQMNSLKPEDTAVYYCAARGGGQPVAYDYWGQGTQVTVSS", "polyreactivity (PSR sort gate)": "high polyreactivity"}
{"sequence": "QVQLVESGGGLVQAGGSLRLSCAASGSIFAKYAMGWYRQAPGKESEFVAAIRASGGRTYYADSVKGRFTISRDNAKNTVYLQMNSLKPEDTAVYYCAAHLYSSRSDYDGPRSRRNYWGQGTQVTVSS", "polyreactivity (PSR sort gate)": "high polyreactivity"}
{"sequence": "QVQLVESGGGLVQAGGSLRLSCAASGSIFAKYTMGWYRQAPGKERELVAAITRSGTSTRYADSVKGRFTISRDNAKNTVYLQMNSLKPEDTAVYYCAASLYSWGQGTQVTVSS", "polyreactivity (PSR sort gate)": "high polyreactivity"}
{"sequence": "QVQLVESGGGLVQAGGSLRLSCAASGSIFANNVMGWYRQAPGKEREFVAAISWSGGRTYYADSVTGRFTISRDNAKNTVYLQMNSLKPEDTAVYYCARRPRAWGQGTQVTVSS", "polyreactivity (PSR sort gate)": "high polyreactivity"}
{"sequence": "QVQLVESGGGLVQAGGSLRLSCAASGSIFAPYAMGWYRQAPGKERELVAAINNNGGRTYYADSVKGRFTISRDNAKNTVYLQMNSLKPEDTAVYYCAADIYPDWIYLLYGYWGQGTQVTVSS", "polyreactivity (PSR sort gate)": "low polyreactivity"}
{"sequence": "QVQLVESGGGLVQAGGSLRLSCAASGSIFARNAMGWYRQAPGKERELVAAISRSGGITYYADSVKGRFTISRDNAKNTVYLQMNSLKPEDTAVYYCATVGYYKGNQVLPAKDGDSWGQGTQVTVSS", "polyreactivity (PSR sort gate)": "high polyreactivity"}
{"sequence": "QVQLVESGGGLVQAGGSLRLSCAASGSIFARNAMGWYRQAPGKERELVASITWSGASTYYADSVKGRFTISRDNAKNTVYVQMNSLKPEDTAVYYCAATDQKLSLDYSSYEYWGQGTQVTVSS", "polyreactivity (PSR sort gate)": "low polyreactivity"}
{"sequence": "QVQLVESGGGLVQAGGSLRLSCAASGSIFARNAMGWYRQAPGKERELVAVITTGGRTYYADSVKGRFTISRDNAKNTVYLQMNSLKPEDTAVYYCATRVIYGQSGGYWGQGTQVTVSS", "polyreactivity (PSR sort gate)": "high polyreactivity"}
{"sequence": "QVQLVESGGGLVQAGGSLRLSCAASGSIFARYAMGWYRQAPGKERELVAAISGSGASTYYADSVKGRFTISRDNAKNTVFLQMNSLKPEDTAVYYCARPFLRRPTYRFESGYGYWGQGTQVTVSS", "polyreactivity (PSR sort gate)": "high polyreactivity"}
{"sequence": "QVQLVESGGGLVQAGGSLRLSCAASGSIFARYAMGWYRQAPGKERELVATISYRGSSTYYADSVKGRFTISRDNAKNTVYLQMNSLKPEDTAVYYCAARTYRRIYAYYRFDYWGQGTQVTVSS", "polyreactivity (PSR sort gate)": "low polyreactivity"}
{"sequence": "QVQLVESGGGLVQAGGSLRLSCAASGSIFARYAMGWYRQAPGTERELVAAISRNGGSTYYADSVKGRFTISRDNAKNTVYLQMNSLKPEDTAVYYCAASYYVLYTREYDYWGQGTQVTVSS", "polyreactivity (PSR sort gate)": "low polyreactivity"}
{"sequence": "QVQLVESGGGLVQAGGSLRLSCAASGSIFASYAMGWYRQAPGKERELVAAIRSSGGRTYYADSVKGRFTISRDNAKNTVYLQMNSLKPEDTAVYYCNARRPGYRPYGYDYWGQGTQVTVSS", "polyreactivity (PSR sort gate)": "high polyreactivity"}
